Assays:
B16 mouse melanoma [1] = conditions: cited from earlier work
mouse MXT tumor = conditions: cisplatin treated; cited from earlier work
B16 mouse melanoma [2] = assay: B16 mouse melanoma model, s.c. highly purified PALP (Example 4, Experiment 1); format: in vivo; conditions: highly purified PALP 14-mg/kg s.c.
From the text: The B16 mouse melanoma and MXT mouse mammary tumors were developed in first generation hybrid BDF1 (C57 B1 female×DBA/2 male) adult female mice kept at specified pathogen free (SPF) hygienic level. These models were chosen for these experiments because these mice have the complete immune system, and both tumors grow very rapidly. To develop the tumors, B16 and MXT tumor tissue fragments of about 0.1-cm^3 were surgically implanted subcutaneously into the intrascapular region to develop the tumors. Each tumor fragment contained about 1-1.5×10^6 cells. The animals were kept in macrolon cages on ventilated rack at 22-24° C. (50-60% humidity) with lighting regimen of 12/12 h light/dark. The animals had free access to tap water and were fed with sterilized standard diet (Charles River VRF1, Germany) ad libitum. […]
In case of both tumor models the tumor size was usually in the range of 0.2 to 0.5-g when treatments started 7-11 days after tumor implantation; the mice were selected so that in the same treatment group the difference in tumor size was no greater than 0.1 gram. […] The tumor volume was determined by using calipers; this technique is well known to one having ordinary skill in the art. Tumor volume was calculated according to the generally accepted formula: V=a^2×b×7r/6, where “a” and “b” mean the shortest and longest diameter, respectively, of the measured tumor. […]

MXT mouse mammary tumor = assay: Cisplatin-treated MXT mouse mammary tumor model, PALP and TF (Example 9, Experiment 1); format: in vivo; conditions: co-treated with cisplatin 3-mg/kg i.p.
From the text: The B16 mouse melanoma and MXT mouse mammary tumors were developed in first generation hybrid BDF1 (C57 B1 female×DBA/2 male) adult female mice kept at specified pathogen free (SPF) hygienic level. These models were chosen for these experiments because these mice have the complete immune system, and both tumors grow very rapidly. To develop the tumors, B16 and MXT tumor tissue fragments of about 0.1-cm^3 were surgically implanted subcutaneously into the intrascapular region to develop the tumors. Each tumor fragment contained about 1-1.5×10^6 cells. The animals were kept in macrolon cages on ventilated rack at 22-24° C. (50-60% humidity) with lighting regimen of 12/12 h light/dark. The animals had free access to tap water and were fed with sterilized standard diet (Charles River VRF1, Germany) ad libitum. The animals were taken care of according to the “Guiding Principle for the care and use of Animals” based upon the Helsinki declaration and they were approved by the local ethical committee.
In case of both tumor models the tumor size was usually in the range of 0.2 to 0.5-g when treatments started 7-11 days after tumor implantation; the mice were selected so that in the same treatment group the difference in tumor size was no greater than 0.1 gram. In some experiments, the test proteins were suspended in physiological saline and injected in 50-μl volume subcutaneously in the vicinity of tumor (within 1-cm of tumor margin). In other experiments, the test proteins were dispersed in Vaselinum cholesteratum and used topically; 150-mg cream was applied on the tumor and the vicinity of tumor area (with about 0.5-cm of the tumor margin). The tumor volume was determined by using calipers; this technique is well known to one having ordinary skill in the art. Tumor volume was calculated according to the generally accepted formula: V=a^2×b×7r/6, where “a” and “b” mean the shortest and longest diameter, respectively, of the measured tumor.
Experiment 1. The mouse MXT mammary tumor was developed as described in Example 3. In the first group, animals remained untreated during the whole observation period. In the second group, starting on the 7th day after tumor implantation, mice were intraperitoneally (i.p.) administered 3-mg per 1-kg total weight of cisplatin 7-times every second day. In the third group, starting on the 7th day after tumor implantation, mice were simultaneously administered 3-mg per 1-kg of cisplatin i.p. and 16-mg per 1-kg of purified PALP s.c. In the fourth group, starting on the 7th day after tumor implantation, mice were simultaneously administered 3-mg per 1-kg of cisplatin i.p. and 60-mg per 1-kg of commercial PALP s.c. In the fifth group, starting on the 7th day after tumor implantation, mice were simultaneously administered 3-mg per 1-kg of cisplatin i.p. and 14-mg per 1-kg of commercial TF (T 3309 in the Sigma catalog) s.c. Each treatment was performed 7-times on every second day. Each group included 7 animals. The mean values for total weight, tumor weight and body weight (the difference between total and tumor weight) are shown in TABLE 6.

human HT 168 melanoma = conditions: total weight includes tumor weight; cited from earlier work

B1: highly purified PALP: human placental alkaline phosphatase purified to homogeneity from commercial PALP; printed as 'PALP' in Tables 1, 7, 8 (protein, UniProt P05187 23-506, looked up)
Alkaline phosphatase, …: IIPVEEENPDFWNREAAEALGAAKKLQPAQTAAKNLIIFLGDGMGVSTVTAARILKGQKKDKLGPEIPLAMDRFPYVALSKTYNVDKHVPDSGATATAYLCGVKGNFQTIGLSAAARFNQCNTTRGNEVISVMNRAKKAGKSVGVVTTTRVQHASPAGTYAHTVNRNWYSDADVPASARQEGCQDIATQLISNMDIDVILGGGRKYMFRMGTPDPEYPDDYSQGGTRLDGKNLVQEWLAKRQGARYVWNRTELMQASLDPSVTHLMGLFEPGDMKYEIHRDSTLDPSLMEMTEAALRLLSRNPRGFFLFVEGGRIDHGHHESRAYRALTETIMFDDAIERAGQLTSEEDTLSLVTADHSHVFSFGGYPLRGSSIFGLAPGKARDRKAYTVLLYGNGPGYVLKDGARPDVTESESGSPEYRQQSAVPLDEETHAGEDVAVFARGPQAHLVHGVQEQTFIAHVMAFAACLEPYTACDLAPPAGTTD
Effect on tumor growth (B16 mouse melanoma [1]; administered subcutaneously or topically): reduced tumor growth
Effect on the action of CCDTHT on tumor growth (B16 mouse melanoma [1]; mouse, in vivo): enhance the effect of CCDTHT
Effect on total weight loss (mouse MXT tumor): reduce total weight loss
Effect on loss of body weight (B16 mouse melanoma [2]): reversed loss of body weight
Effect on tumor size (B16 mouse melanoma [2]): no major effects on the tumor size
Effect on body weight loss induced by the tumor and cisplatin (MXT mouse mammary tumor): not only prevented the loss but significantly enhanced body weight
Effect on tumor induced loss of total weight (human HT 168 melanoma): reduces tumor induced loss of total weight

Reference: patent US20080098491A1, “MOUSE MODELS TO STUDY CACHEXIA” (ZOLTAN LABORATORIES LLC, priority 2006, published 2008)
